The nature of this data set: yeast display, Sf9 membrane polyspecificity reagent, FACS + sequencing; frameworks hold sequencing errors. An outline of the steps:
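Galactose induction of a Saccharomyces cerevisiae BJ5465 synthetic nanobody display library ran 36–48 hours. The cells were then stained for 1 hour at 4 °C with 10% biotinylated, detergent-solubilized Sf9 membrane reagent, pulled down on streptavidin microbeads and FACS-sorted into low and high (top ~1%) gates on expression and reagent-binding fluorescence. Labels for polyreactivity follow the gate of origin.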
In the case of “QVQLVESGGGLVQAGGSLRVSWAACGSTFYGYGMGWYRQAPWKERELVAAITGSGDTTYYADSVKGRFTISRDNAKNTVYLQMNSLKPEDTAVYYCAADASSKLYEYWGQGTQVTVSS”, the “polyreactivity (PSR sort gate)” value is reported as “low polyreactivity”. As to “QVQLVESGGGLVQAGGSLSLICAASGRILSGNAMVWYRQAPGKERELVAAITNAGITKYAVSVKGRFTISRDNAKNTVYLQMNSLKPEHTEVYYCASDRYAYKLYDYWGQGTQVTVSS”, the “polyreactivity (PSR sort gate)” value is given as “low polyreactivity”.

Regarding “QVQLVESGGGLVQAGGSLSLICAASGRIYPKYAMGWYRQAPGKERELVAGITKRVGSTYYADSVKGRFTISRDNAKHTVYLQMTSLKPEDTAGYYCAKRWVSGPHGYWGQGTQVTVSS”, the “polyreactivity (PSR sort gate)” value is “low polyreactivity”. Regarding “QVQLVESGGGLVQAGGSLSLICAASGSTLATYTMGGYRQAPGKERELVAAISFGGSTYYADSVKGRYTISRDNAKNTVYLQMISLKPEDTAVYYCAVYGDSYWGAYYYSDGYWGQGTQVTVSS”, the “polyreactivity (PSR sort gate)” value was “low polyreactivity”.

Turning to “QVQLVESGGGLVQAGGSLSLRFAASGFIFYRYAMGWYRQAPWKERELVAAITRSVTSTYYADSVKGRFTISRDNAKNTVYLQMNSLKPEDTAVYYCILRSRYDYYYWGQGTQVTVSS”, the “polyreactivity (PSR sort gate)” value is “high polyreactivity”.

Take “QVQLVESGGGLVQAGGSLSLSCAAMGWYRQAPGKERELVATITWSGGSTYYADSVKGRFTISRDNAKNPVYLQMNSLKPEDTAVYYCNARATLLSPANTIRGYDYWGQGTQVTVSS”: the “polyreactivity (PSR sort gate)” value is listed as “low polyreactivity”.

“QVQLVESGGGLVQAGGSLSLSCAASGFIFHFNAMGWYIQAPGKEREVVAAISRTGGTTYYADSVKGRFTLSRDNAKNTVYLQMNSLKPEVTAVYYCAAYSTYGQHYDYWGQGTQVTVSS”: the “polyreactivity (PSR sort gate)” value is recorded as “high polyreactivity”.

As for “QVQLVESGGGLVQAGGSLSLSCAASGFIFPRYTMGWYRQAPGKERELVAAMTSSGGTNYADSVKGRFTISRDNAKNTVYLQMNSLKPEDTAVYYCAARRRTQQGYGGGYWGQGTQVTVSS”, the “polyreactivity (PSR sort gate)” value is “high polyreactivity”. Turning to “QVQLVESGGGLVQAGGSLSLSCAASGFIFVPYAMGLSRQAPGKERELVARITWSGGRTYYADSVKGRFTISRDNAKNTVYLQLNSLKPEDTAVYYCNADVYGFDYWGQGTQVTVSS”, the “polyreactivity (PSR sort gate)” value is on record as “high polyreactivity”. For “QVQLVESGGGLVQAGGSLSLSCAASGFTLGYYAMGWYRQAPGKERELVAAITSGGGTNYADSVKGRFTISRDNAKNTVYLQMNSLKPEDTAVYYCAARARWIYGMYSWGQGTQVTVSS”, the “polyreactivity (PSR sort gate)” value is on record as “low polyreactivity”. Take “QVQLVESGGGLVQAGGSLSLSCAASGGIFAANAMGWYRQAPGKERELVAAITRRGGSTTYADSVKGRFTISRDNAKNTVYLQMNRLKREDTAVYYCNTVYYRFYIELYFSSYDYWGQGTQVTVSS”: the “polyreactivity (PSR sort gate)” value is “high polyreactivity”. Turning to “QVQLVESGGGLVQAGGSLSLSCAASGITFGLYTLGWYRQAPGKERELVASISQSGGSTYYADSVKGRFTNSRDNAKNTVYLQMNSQKQEDTAVYYCNARRRFWDFSTRGYDSWGQGTQGTVSS”, the “polyreactivity (PSR sort gate)” value is reported as “high polyreactivity”. The entry for “QVQLVESGGGLVQAGGSLSLSCAASGLTFKWNAMGWYRQAPGKEREFVAANTKRAGSTYYADSVKGRFTISRDNAKNTVYIQMNSLKPEDTAVYYCAADDGYFYARYDYWGQGTQVTVSS” is “low polyreactivity”; for “QVQLVESGGGLVQAGGSLSLSCAASGLTFQEYAMRWYRQAPGKERELVAAISWSGGSTYYADSVKGRFTISRDNAKNTVYLQMNSLKPEDTAVYYCAAEAYEEYITGWYAYDYWGQGTQVTVSS” it is “high polyreactivity”. “QVQLVESGGGLVQAGGSLSLSCAASGNTFPYYAMGWYRPAPGKERELVAAIRAGGGSTYYADSVKGRFTISRDNAKNTVYLQMNSLKPEDTAVYYCNADSDYNQYYLAVIHSILDYWGHGTQVTVSS”: the “polyreactivity (PSR sort gate)” value is given as “low polyreactivity”. Take “QVQLVESGGGLVQAGGSLSLSCAASGPTFTQNVMGWYRQAPGKERELVAGISSGDITNYADSVKGRFTISRDNAKNTVYLQMNSLKPEDTAVYFCTYYGKSGGYRYTYYYWGQGTQVTVSS”: the “polyreactivity (PSR sort gate)” value is listed as “high polyreactivity”. As to “QVQLVESGGGLVQAGGSLSLSCAASGRIFAYYAMGWYRQAPGKERELVAAISGGGGSTYYADSVKGRFTISRDNAKNTVYLQMNSLKPEDTAVYYCAARYTVYSATGRYYYWGQGTQVTVSS”, the “polyreactivity (PSR sort gate)” value is on record as “high polyreactivity”. On to “QVQLVESGGGLVQAGGSLSLSCAASGRIFPTYTMGWYRQAPGKERELVAAINRGGGSTYYADSVKGRFTISRDIAMNTVYLQMYSLKAEDTAVYYCNARTYYRSYGYDYCGQGTQVTVSS”, for which the “polyreactivity (PSR sort gate)” value is “low polyreactivity”. Consider “QVQLVESGGGLVQAGGSLSLSCAASGRIFRRYAMGWYRQAPGKEREFVAAISYGGGSTYYADSVKGRFTISRDNAKNTVYLQMNSLKPEDTAVYYCNADVPKSLLLYYPWGYGYWGQGTQVTVSS”, for which the “polyreactivity (PSR sort gate)” value is on record as “low polyreactivity”. Regarding “QVQLVESGGGLVQAGGSLSLSCAASGRIFVRNSMGWYRQEPGKETELVADITNGGSTNYADSVKGRFTISRDNAKNTVYLQMNSQKPEDTAVYYCAADTLGVYDGDYWGQGTQVTVSS”, the “polyreactivity (PSR sort gate)” value was “low polyreactivity”. “QVQLVESGGGLVQAGGSLSLSCAASGRIFVRNTMGWYRQAPGKERELVATISRRGGITYYADSVKGRFTISRDNAKNTVYLQMNSLKPEDTAVYYCAAESYSFWLYDYCGQGTQVTVSS”: the “polyreactivity (PSR sort gate)” value is given as “high polyreactivity”.

For “QVQLVESGGGLVQAGGSLSLSCAASGRIFYKYAMGWYRQAPGKESELVAAINTSGGRTYYADSVKGRFTISRDNAKNTVYLQMNSLKPEDTAVYYCKAVGSAYTAYDYWGQGTQVTVSS”, the “polyreactivity (PSR sort gate)” value is recorded as “high polyreactivity”. With “QVQLVESGGGLVQAGGSLSLSCAASGRIFYRNAMGWYRQAPGKERELVAGITRGGSTNYADSVKGRFTISRDNAKNTVYLQMNSLKPEDTAVYYCAKAIPAKFYSEAGYDYWGQGTQVTVSS”, the “polyreactivity (PSR sort gate)” value is reported as “low polyreactivity”.

Take “QVQLVESGGGLVQAGGSLSLSCAASGRIFYRYAMGWYRQAPVKERELVAAISGSVGSTYADSVKGRFTISRDNAKNTVYLQMISLKPEDTAVYYCARETYRRYGAYDYWGQGTQVTVSS”: the “polyreactivity (PSR sort gate)” value was “low polyreactivity”. Turning to “QVQLVESGGGLVQAGGSLSLSCAASGRIFYVNTMGWYRQAPGKERELVATISSAASTNYADSVKGRFTISRDNAKNTVYLQMNSLKPEDTAVYYCNASRLSRLSALSGFYSWGQGTQVTVSS”, the “polyreactivity (PSR sort gate)” value is recorded as “low polyreactivity”. As to “QVQLVESGGGLVQAGGSLSLSCAASGRNFAYYAMGWYRQAPGKERELVAGISQRGSRTYYADSVKGRFTISRDNAKNTVYLQMNSLKPEDTAVYYCAARDRRSVTMDYWGQGTQVTVSS”, the “polyreactivity (PSR sort gate)” value is recorded as “high polyreactivity”.

On to “QVQLVESGGGLVQAGGSLSLSCAASGRNFTIYAMGWYIQAPGKEREMVAGITRSGGRTYYADSVKGRFTISRDNAKNTVYLQMNSLKPEDTAVYYCNRVFYSGYRGQGHSYESWGQGTQVTVSS”, for which the “polyreactivity (PSR sort gate)” value is “high polyreactivity”. Regarding “QVQLVESGGGLVQAGGSLSLSCAASGRTFGAYAMGWYRQAPGKERELVATITVSGGSTYYADSVKGRFTISRDNAKNTVYLQMNSLKREDTAVYYCAAEWYPYPWGYGYWGQGTQVTVSS”, the “polyreactivity (PSR sort gate)” value is reported as “low polyreactivity”.

On to “QVQLVESGGGLVQAGGSLSLSCAASGRTFSANTMGWSRQAPGKERELVAAISKSGGSTYYADSVKGRFTISRDNAKNTVYLQMNSLKPEDTAVYYCAARTSGYWYSYGSWGQGTQVTVSS”, for which the “polyreactivity (PSR sort gate)” value is recorded as “high polyreactivity”.

In the case of “QVQLVESGGGLVQAGGSLSLSCAASGRTFWLNSMGWYRQAPGKERELVATISSSSGSTTYADSVKGRFTISRDNAKNTVYLQMNSLKPEDTAVYYCAADWSDDVPGYDYWGQGTQVTVSS”, the “polyreactivity (PSR sort gate)” value is “low polyreactivity”. In the case of “QVQLVESGGGLVQAGGSLSLSCAASGRTFYRNAMGWYRQAPGKERELVAAISSDDSTNYADSVKGRFTISRDNAKNTVYLQMNSLKPEDTAVYYCNADYYYGYEYDYWGQGTQVTVSS”, the “polyreactivity (PSR sort gate)” value was “low polyreactivity”. In the case of “QVQLVESGGGLVQAGGSLSLSCAASGRTIAYYAMGWDRQAPGKEMEFVAAISSTGTSTYYADSVKGRFTISRDNAKNTVYLQMNSLKPEDTGVYYCNARVATYRLHSKFYYWGQRTQVTVSS”, the “polyreactivity (PSR sort gate)” value is recorded as “high polyreactivity”. On to “QVQLVESGGGLVQAGGSLSLSCAASGRTYYYNAMGWYRQAPGKERELVAAITFSGGTTSYADSEKGRFTISRDNAKNTVYLQMNRLKPEDTEVYYCAARGYWGQGTQVTVSW”, for which the “polyreactivity (PSR sort gate)” value is “high polyreactivity”.

For the sequence “QVQLVESGGGLVQAGGSLSLSCAASGSIFASNTMGWYRPAPGKERELVAGITKIGSSTYYADSVKGRFTISRDNAKNTVYLQMNSLKPEDTAVYYCNAYGPNIYSSRYDYWGQGTQVTVSS”, the “polyreactivity (PSR sort gate)” value is reported as “low polyreactivity”. “QVQLVESGGGLVQAGGSLSLSCAASGSIFKFNTMGWSRQAPRKERELVAAISRSGGSTYYADSVKGRFTISRDNAKNNVYLQMNSLKPEDTAVYYCAARQFSGPYVRYGYWGQGTQVSVSS”: the “polyreactivity (PSR sort gate)” value was “high polyreactivity”. With “QVQLVESGGGLVQAGGSLSLSCAASGSIFPHYAMGWYRQAPGKERELVAAISRSGTSTYYADSVKGRFTISRDNAKNTVYLQMNSLNPEDTAVYYCATGYRRDHDDYWGQGTQVTVSS”, the “polyreactivity (PSR sort gate)” value is “high polyreactivity”. Regarding “QVQLVESGGGLVQAGGSLSLSCAASGSIFWYNAMGWYRQAPGKERELVAGITSGGDTNYADSVKGRFTISRDNAKNTFYLQMNSLKPEDTAVYYCNTPSGPGNVGYYRRKWYGYWGQGTQVSVSS”, the “polyreactivity (PSR sort gate)” value is “low polyreactivity”. For “QVQLVESGGGLVQAGGSLSLSCAASGSIFYYNAMGWYRQAPGKERELVAAITSSAITNYADSVKGRFTISRDNAKNTVYLQMKSRKPEDTAVYYCAGRITTRPRSTRKRVWVDYWGQGTQVTVSS”, the “polyreactivity (PSR sort gate)” value is listed as “high polyreactivity”.

For the sequence “QVQLVESGGGLVQAGGSLSLSCAASGSTFDYYAMGWYRQAPGKEWELVADITYSGGSTYYADSVKGRFTISRDNAKNTVYLQMNSLKPEDTAVYYCNAYYTVYTRYDYWGQGTQVTVSS”, the “polyreactivity (PSR sort gate)” value is on record as “high polyreactivity”. Consider “QVQLVESGGGLVQAGGSLSLSCAASGSTFNHYAMGWYSPAPGKERELVAAISSRGGSTHYADSVKGRFTISRDNAKNTVYLQMNSLKPEDTAVYDCARDTDPQSSRSSDYDYWGQGTQVTVSS”, for which the “polyreactivity (PSR sort gate)” value was “low polyreactivity”. With “QVQLVESGGGLVQAGGSLSLSCAASGSTFRHYAMGGYRQAPGKERELVAAISSRGGSTHYADSVKGRFTISRDNAKNTVYLQMNSLKPEDTAVYYCARDTDTQSSRSSDYDYWGQGTQVNVSS” the entry was “low polyreactivity”.

These data come from the nanobody polyreactivity screen of Harvey et al. (2022).
